One assay deals with HUVECs. Description: Capillaries formation by HUVECs on Matrigel. Type of assay: cell-based, human. Particulars: 6.5 μM, 13 μM and 33 μM, 18 h. The method, then: Evaluating the formation of capillaries on Matrigel® was performed by angiogenesis test in vitro described in Grant et al (1989 Cell 58, 933-943). Matrigel® was dropped down the wells of the 96 well plates and maintained for 30 min at 37° C. for the Matrigel® solidification. HUVECs cells were then seeded and 50 μL, of peptide added.
Plates were then incubated for 18 hrs at 37° C. cells were then washed with calcein solution (50 μL/well at 8 μM) and incubated for 20 min. HUVECs alive metabolize calcein in a green fluorescent component.
Peptides were added to the culture medium (EGM2-MV) at concentrations 6.5 μM, 13 μM and 33 μM after inoculation of cells. Plates were incubated at 37° C. for 18 h. Fluorescence labeling was achieved by addition of calcein. Pictures were shot with a fluorescence microscope equipped with a camera (zoom ×40).

A further assay deals with T1, CD9P-1-CD151 complex (Homo sapiens, UniProt P48509+Q9P2B2).
T1 construct: endogenous in cells; host or cells: HUVEC
T1 sequence (Q9P2B2 26-879): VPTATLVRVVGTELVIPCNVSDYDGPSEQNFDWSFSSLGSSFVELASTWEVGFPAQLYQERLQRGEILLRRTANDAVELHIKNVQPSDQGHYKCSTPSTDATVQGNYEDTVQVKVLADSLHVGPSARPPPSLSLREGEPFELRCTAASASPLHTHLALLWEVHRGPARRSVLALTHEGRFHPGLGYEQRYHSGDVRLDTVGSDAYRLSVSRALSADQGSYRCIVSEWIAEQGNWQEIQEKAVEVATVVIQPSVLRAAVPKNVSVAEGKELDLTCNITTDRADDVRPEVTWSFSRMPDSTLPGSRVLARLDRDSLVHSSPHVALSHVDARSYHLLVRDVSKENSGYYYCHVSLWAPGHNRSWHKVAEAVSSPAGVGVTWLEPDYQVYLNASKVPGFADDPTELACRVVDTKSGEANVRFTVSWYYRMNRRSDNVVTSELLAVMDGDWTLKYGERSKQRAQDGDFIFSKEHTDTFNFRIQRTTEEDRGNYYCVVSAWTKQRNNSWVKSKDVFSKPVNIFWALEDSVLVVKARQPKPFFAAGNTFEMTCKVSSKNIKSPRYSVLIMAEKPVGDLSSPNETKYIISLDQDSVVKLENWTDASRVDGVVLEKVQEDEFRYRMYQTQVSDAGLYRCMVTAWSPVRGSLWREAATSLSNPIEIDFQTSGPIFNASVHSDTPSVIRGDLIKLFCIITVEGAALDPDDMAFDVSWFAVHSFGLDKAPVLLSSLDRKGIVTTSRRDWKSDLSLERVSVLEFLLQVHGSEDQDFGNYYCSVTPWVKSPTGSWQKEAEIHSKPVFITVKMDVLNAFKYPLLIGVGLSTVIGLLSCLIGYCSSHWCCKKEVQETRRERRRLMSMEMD
T1 sequence (P48509 1-253): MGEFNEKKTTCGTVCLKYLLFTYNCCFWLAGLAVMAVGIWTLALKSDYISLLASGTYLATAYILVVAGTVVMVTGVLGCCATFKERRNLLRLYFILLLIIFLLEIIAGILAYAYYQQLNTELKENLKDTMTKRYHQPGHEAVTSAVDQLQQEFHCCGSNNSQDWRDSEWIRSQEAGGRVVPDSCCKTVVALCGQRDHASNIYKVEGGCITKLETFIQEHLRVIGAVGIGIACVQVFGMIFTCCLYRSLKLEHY
Description: Immunoprecipitation in HUVECs: CD9P-1 with CD151. Format: cell-based. Particulars: 33 μM; 2 hrs. The method, then: (§1) FIG. 13 is a photograph representing the dissociation of CD9-CD9P-1, CD9P-1-CD151 and CD9-CD151 complexes by P3 in HUVECs. HUVECs incubated for 2 h with 33 μM P3, PCT or solvent in EGM2-MV medium were lysed in brij 97 buffer, then CD81, CD9 or CD151 were immunoprecipitated with the corresponding antibody. Line A: Western blot results obtained with anti-CD9P-1 antibody from immunoprecipitated CD81, CD9 and CD151. Line B: Western blot results obtained with anti-CD9 antibody from immunoprecipitated CD81, CD9 and CD151. Line C: Western blot results obtained with anti-CD151 antibody from immunoprecipitated CD81, CD9 and CD151. PCT: control peptide. IP: immunoprecipitation.
(§2) To study more precisely the effect of P3 on the associations of tetraspanins CD9, CD81, and CD151 between them and with CD9P-1, immunoprecipitation (IP) experiments were performed. In the control experiment (with the solvent), CD9P-1 co-precipitated with CD9 and CD81. A weak co-precipitation was observed between […] and CD151. The associations between tetraspanins and CD9P-1 are not modified under PCT condition. However, the interactions between CD9P-1 and CD9 and between CD9P-1 and CD151 are decreased while the HUVECs are incubated for 2 hrs with 33 μM of P3. The association between CD9P-1 and CD81 is not modified by P3 (FIG. 13A).

Assay [1] has as its target T2, CD9P-1 and CD81 association (Homo sapiens, UniProt P60033+Q9P2B2).
T2 construct: endogenous in cells; host or cells: HUVEC
T2 sequence (Q9P2B2 26-879): T1 sequence (Q9P2B2 26-879)
T2 sequence (P60033 1-236): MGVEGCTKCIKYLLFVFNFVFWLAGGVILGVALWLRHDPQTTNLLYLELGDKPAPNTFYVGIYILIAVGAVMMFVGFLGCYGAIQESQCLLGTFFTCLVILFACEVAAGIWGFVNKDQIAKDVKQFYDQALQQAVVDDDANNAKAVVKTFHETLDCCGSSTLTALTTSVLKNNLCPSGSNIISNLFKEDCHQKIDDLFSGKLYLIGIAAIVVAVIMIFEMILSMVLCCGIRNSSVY
Description: Immunoprecipitation in HUVECs: CD9P-1 with CD81. Particulars: 33 μM; 2 hrs. Type of assay: cell-based. The method, then: as §1, §2

As to NQKGCYDLVT (control peptide) [PCT], the “capillary tubes formation (capillaries length and junctions number)” value in the assay with HUVECs was “no effect”. In the assay with CD9P-1-CD151 complex, the “interaction between CD9P-1 and CD151” value is reported as “not modified”. Further, the “association between CD9P-1 and CD81” value in assay [1] is recorded as “not modified”.

(Values after patent publication US20170173106A1, “Polypeptide Fragments of 168A-T2 and Compositions Comprising Them for Use in Treating Cancer” (GENE SIGNAL INTERNATIONAL SA, priority 2014, published 2017).)
